According to patent US20210155918A1:

Assays:
[1] = target: rPro^Δ473-487, recombinant human prothrombin with region 473-487 deleted (human) (UniProt P00734)
[2] = target: rPro^ΔN10, recombinant human prothrombin missing amino acids … (human) (UniProt P00734)
[3] = target: rPro^ΔS5V, recombinant human prothrombin with region SVLQV deleted (human) (UniProt P00734)
[4] = target: rPro^ΔSLQ, recombinant human prothrombin with amino acids Ser^478/Leu^480/Gln^481 deleted (human) (UniProt P00734)
[5] = target: rPro^ΔC10, recombinant human prothrombin missing amino acids … (human) (UniProt P00734)

| Rate of Pro molecules cleavage by prothrombinase (nM consumed · s^-1 · fXa^-1) [1] | Rate of Pro molecules cleavage by prothrombinase (nM consumed · s^-1 · fXa^-1) [2] | Rate of Pro molecules cleavage by prothrombinase (nM consumed · s^-1 · fXa^-1) [3] | Km of prothrombinase for rPro activation [4] | kcat/Km of prothrombinase for rPro activation (IIa generation, chromogenic substrate) [4] | Rate of Pro molecules cleavage by membrane-bound fXa alone (nM consumed · s^-1 · fXa^-1) [1] | Rate of Pro molecules cleavage by membrane-bound fXa alone (nM consumed · s^-1 · fXa^-1) [5] | Rate of Pro molecules cleavage by membrane-bound fXa alone (nM consumed · s^-1 · fXa^-1) [2] | Rate of Pro molecules cleavage by membrane-bound fXa alone (nM consumed · s^-1 · fXa^-1) [3] | Substance |
| --- | --- | --- | --- | --- | --- | --- | --- | --- | --- |
| 1 | 1.5 | 1.8 | 3.2 µM | 670000 M⁻¹ s⁻¹ |  |  |  |  | prothrombinase (from UniProt P00742) (enzyme) |
|  |  |  |  |  | 0.53 | 0.35 | 0.7 | 0.8 | Human fXa (from UniProt P00742) (enzyme) |
